Data taken from patent US6306273A, “Methods and compositions for conducting processes in microfluidic devices” (Aclara BioSciences, Inc., priority 1999, dated 2001).
Ends that are not written are not given here. * marks the point of attachment. FITC = O=C1OC2(c3ccc(O)cc3Oc3cc(O)ccc32)c2ccc(NC(=S)*)cc21

Assay: Separation of FITC labeled peptides in dynamically coated chip; charge from migration time relative to EOF
Format: physicochemical
Conditions: 0.05% ammonium guar; determined by migration time relative to EOF
Description: The coating procedure and the separation conditions were the same as described previously. The surface modifying polymer was 0.05% ammonium guar. Three FITC labeled peptides (obtained from AnaSpec, San Jose, Calif.), which differed by one charge from each other (FITC-KKAA, FITC-KKKA and FITC-KKKK), were separated and detected 0.5 cm from the injection point on the anodal side. […] FITC-KKKA and FITC-KKKK migrated electrophoretically against the EOF. The net charge of FITC-KKKK was greater than +1.

## FITC-KKAA: FITC labeled peptide, SEQ ID NO:1, from AnaSpec ({FITC}-KKAA)
  net charge: negatively charged

## FITC-KKKA: FITC labeled peptide, SEQ ID NO:2, from AnaSpec ({FITC}-KKKA)
  net charge: positive charged
